Assay results reported in PMC8172134.

Biological target: SARS-CoV-2 spike prefusion stabilized ectodomain trimer (SARS-CoV-2) (UniProt P0DTC2)
Assay: cryo-EM structure

## 47D11 Fab fragment
  stoichiometry N (Fab per spike trimer): 2
